Assay [1] relates to human cord blood cells (CD34-positive cells). The conditions noted are these: with or without TPO treatment; single administration; cited from earlier work.
Another assay relates to mouse bone marrow. The following applies: TPO administered to TPO-knockout mice; cited from earlier work.
The subject of assay [2] is human cord blood-derived CD34-positive cells. The experiment in a line: Engraftment number of different human blood cell lineages in bone marrow of mice transplanted with human cord blood-derived hematopoietic stem cells (Example 1). It is filed as in vivo, NOD.CB17-Prkdc<scid>/J mice. The text has this: Engraftment of transplanted hematopoietic stem cells in the bone marrow is required in hematopoietic stem cell transplantation. The present invention provides agents which comprise an agonist for the TPO receptor (c-mpl) as an active ingredient for enhancing the engraftment of transplanted CD34-positive hematopoietic cells in the bone marrow. The engraftment of transplanted CD34-positive hematopoietic cells (CD34-positive hematopoietic stem cells and CD34-positive hematopoietic precursor cells) in the bone marrow can be promoted by administering the agents of the present invention. The presence or absence, or the degree of engraftment of transplanted CD34-positive hematopoietic cells in the bone marrow (the engraftment rate of transplanted CD34-positive hematopoietic cells in the bone marrow) can be assessed, for example, by determining the absolute number of human CD34-positive hematopoietic cells in the bone marrow of NOD/SCID mice to which human hematopoietic cells are transplanted. Human cells can be identified among the mouse bone marrow cells by using a fluorescent-labeled, human CD34-specific antibody for detection. Specifically, the engraftment rate of transplanted CD34-positive hematopoietic cells in the bone marrow can be determined by the following procedures. First, NOD.CB17-Prkdc/J mice, to which human cord blood-derived CD34-positive cells have been transplanted, are euthanized three weeks after transplantation. The right and left femurs are collected, and then their epiphyseal portions are removed by scissors. Bone marrow cells are flushed out using a 26G-needle syringe and collected. After washing with IMDM containing 2% FBS, 5 ml of erythrocyte lysis solution is added, and the mixture is allowed to stand for five minutes. The mixture is centrifuged and supernatant is removed. Then, the precipitate is suspended in 2 ml of IMDM containing 2% FBS. The suspension is filtered through a 70-μm membrane to prepare a bone marrow cell suspension (2 ml/two femurs for each mouse). The cell suspension is aliquoted into 100-μl samples, and the cells are stained for 15 minutes with a fluorescent-labeled, human CD34-specific antibody and PI (final concentration: 2 μg/ml). After washing, 50 μl of Flow-Count fluorescent particles are added, and the engraftment number of human CD34-positive cells is determined using the EPICS XL cell analyzer. The determination may be performed, for example, according to Application Note 5: “Determination of the absolute number of cells using Flow-Count” (Beckman Coulter, Inc.). Likewise, the absolute number of different human blood cell lineages in the bone marrow can be determined using a variety of detection antibodies. The absolute number of human cells contained in the two femurs is represented by the following formula:
Absolute number of human cells=determined value (cells/μl)×1/2(Flow-Count amount added (50)/sample amount added (100))×2000 (2 ml/two femurs/mouse)
Mice used were acclimatized six-week-old male NOD.CB17-Prkdc/J. After systemic irradiation with 3.0 Gy of X-ray, an anti-asialo-GM1 antibody was intraperitoneally administered to the mice once every ten days from the day of irradiation. 5×10^4 human cord blood-derived CD34-positive cells were transplanted to each mouse at the caudal vein one day after irradiation. From the day after transplantation, the sc(Fv)2 antibody of SEQ ID NO: 73 was administered every day for ten consecutive days, and after that, administration was conducted for five days followed by two days of break. The doses were: 0.25 mg/5 ml/kg in the morning, and 2 mg/5 ml/kg in the evening. The antibody was subcutaneously administered at eight-hour intervals, twice a day for three weeks in total (n=10). 20 mmol/l citric acid buffer containing 0.02% Tween 80 was administered as a vehicle in the same way as the sc(Fv)2 antibody of SEQ ID NO: 73. The bone marrow was collected after three weeks transplantation, and FACS analysis was performed using EPIX XL. […]

A further assay has as its system human CFU-Meg colonies. The experiment in a line: Number of human CFU-Meg colonies in bone marrow of mice transplanted with human cord blood-derived hematopoietic stem cells (Example 2). The following applies: vs vehicle-administered group; s.c. 0.25 + 2 mg/kg per day, three weeks; bone marrow cells cultured 13 days in MegaCult-C; FIG. 2. It is filed as in vivo, NOD.CB17-Prkdc<scid>/J mice. Here is the method:
Mice used were acclimatized six-week-old male NOD.CB17-Prkdc/J. After systemic irradiation with 3.0 Gy of X-ray, an anti-asialo-GM1 antibody was intraperitoneally administered to the mice once every ten days from the day of irradiation. 5×10^4 human cord blood-derived CD34-positive cells were transplanted to each mouse at the caudal vein one day after irradiation. From the day after transplantation, the sc(Fv)2 antibody of SEQ ID NO: 73 was administered every day for ten consecutive days, and then after that, administration was conducted for five days followed by two days of break. The antibody was subcutaneously administered at 0.25 mg/5 ml/kg in the morning and 2 mg/5 ml/kg in the evening, at eight-hour intervals, twice a day for three weeks in total (n=10). 20 mmol/l citric acid buffer containing 0.02% Tween 80 was administered as a vehicle in the same way as the sc(Fv)2 antibody of SEQ ID NO: 73. Bone marrow cells were collected after three weeks transplantation. Bone marrow cells contained in the mouse femurs were cultured with the sc(Fv)2 antibody of SEQ ID NO: 73 for 13 days using MegaCult-C (StemCell Technologies). The number of human CFU-Meg colonies was determined by counting CD41-positive colonies containing 50 or more cells under a light microscope.

The test system of assay [3] is human cord blood-derived CD34-positive cells. The experiment in a line: Dose-dependent effect on engraftment number of different human blood cell lineages in bone marrow of transplanted mice (Example 3). It is filed as in vivo, NOD.CB17-Prkdc<scid>/J mice. The following applies: high, medium, low dose s.c. for ten days, FIG. 3. Here is the method: Mice used were acclimatized six-week-old male NOD.CB17-Prkdc/J. After systemic irradiation with 3.0 Gy of X-ray, an anti-asialo-GM1 antibody was intraperitoneally administered to the mice on the day of irradiation and eight days after irradiation. 5×10^4 human cord blood-derived CD34-positive cells were transplanted to each mouse at the caudal vein the day after irradiation. The sc(Fv)2 antibody of SEQ ID NO: 73 was administered every day for ten consecutive days from the day after the irradiation, according to the following three dosages (subcutaneous administration; n=9 for each group).
High-dose group (0.25 mg/kg in the morning, an eight-hour interval, and 2 mg/kg in the evening, per day)
Medium-dose group (0.05 mg/kg in the morning, an eight-hour interval, and 0.2 mg/kg in the evening, per day)
Low-dose group (0.01 mg/kg in the morning, an eight-hour interval, and 0.02 mg/kg in the evening, per day)
The dose was adjusted so that the minimum drug concentration in peripheral blood during the administration period is 50 ng/ml, 10 ng/ml, or 2 ng/ml in the high-, medium-, or low-dose group, respectively.
20 mmol/l sodium citrate/150 mM NaCl buffer (pH 6.5) containing 0.02% Tween 80 was administered as a vehicle in the same way as the sc(Fv)2 antibody of SEQ ID NO: 73. Bone marrow cells were collected after two weeks transplantation, and FACS analysis was performed. The absolute number of human cells was determined using Flow-Count (Beckman).

Where [4] appears, read: summary statement of the inventors' findings.
Setting [5] is: vs vehicle group, s.c. 0.25 + 2 mg/kg per day, three weeks, FIG. 1.
[6] abbreviates: two weeks after transplantation.

As for “TPO: cytokine that promotes growth and differentiation of megakaryocytic lineage cells; ligand for c-mpl”, the “frequencies of CD34 positive cells” value in assay [1] is recorded as “did not differ significantly”. The “mouse bone marrow transplantation efficiency” value in the assay with mouse bone marrow is listed as “increased”.

B1: VB22B sc(Fv)2: agonistic minibody against the TPO receptor; amino acid sequence of SEQ ID NO: 14 (protein, listed as Mus musculus)
chain: MEWPLIFLFLLSGTAGVHSQVQLQQSGPELVKPGASVKISCKASGYAFTNSWMNWVKQRPGKGLEWIGRIYPGDGETIYNGKFRVKATLTADKSSSTAYMDISSLTSEDSAVYFCARGYDDYSFAYWGQGTLVTVSAGGGGSGGGGSGGGGSDIVMTQAAPSIPVTPGESVSISCRSSKSLLHSNGNTYLYWFLQRPGQSPQLLIYRMSNLASGVPDRFSGSGSGTAFTLRISRVEAEDVGVYYCMQHIEYPFTFGSGTKLEIKGGGGSGGGGSGGGGSQVQLQQSGPELVKPGASVKISCKASGYAFTNSWMNWVKQRPGKGLEWIGRIYPGDGETIYNGKFRVKATLTADKSSSTAYMDISSLTSEDSAVYFCARGYDDYSFAYWGQGTLVTVSAGGGGSGGGGSGGGGSDIVMTQAAPSIPVTPGESVSISCRSSKSLLHSNGNTYLYWFLQRPGQSPQLLIYRMSNLASGVPDRFSGSGSGTAFTLRISRVEAEDVGVYYCMQHIEYPFTFGSGTKLEIK
On to B1, for which, in assay [2] (setting [4]), the “engraftment of transplanted human cord blood-derived hematopoietic stem cells (CD34-positive hematopoietic cells) in the bone marrow” value is given as “enhanced the engraftment”, the “growth of multilineage blood precursor cells” value was “induced significant growth” and the “human megakaryocyte-specific differentiation (increase of megakaryocytic cells)” value was “induced human megakaryocyte-specific differentiation”.

B2: sc(Fv)2 antibody of SEQ ID NO: 73: humanized sc(Fv)2 antibody comprising the amino acid sequence of SEQ ID NO: 73; c-mpl agonist (protein, listed as Homo sapiens)
chain: MDWTWRFLFVVAAATGVQSQVQLVQSGPEVKKPGASVKVSCKASGYTFTNSWMNWVRQRPGKGLEWIGRIYPGDGETIYNGKFRVRVTITADESTSTAYMQLSSLRSEDTAVYYCARGYDDYSFAYWGQGTTVTVSSGGGGSGGGGSGGGGSDIVMTQSPLSLPVTPGEPASISCRSSKSLLHSNGNTYLYWFLQKPGQSPQLLIYRMSNLASGVPDRFSGSGSGTDFTLKISRVEAEDVGVYYCMQHIEYPFTFGQGTKLEIKGGGGSGGGGSGGGGSQVQLVQSGPEVKKPGASVKVSCKASGYTFTNSWMNWVRQRPGKGLEWIGRIYPGDGETIYNGKFRVRVTITADESTSTAYMQLSSLRSEDTAVYYCARGYDDYSFAYWGQGTTVTVSSGGGGSGGGGSGGGGSDIVMTQSPLSLPVTPGEPASISCRSSKSLLHSNGNTYLYWFLQKPGQSPQLLIYRMSNLASGVPDRFSGSGSGTDFTLKISRVEAEDVGVYYCMQHIEYPFTFGQGTKLEIK
Consider B2, for which the “number of human CD34-positive cells in right and left femurs” value in assay [2] (vs vehicle group, s.c. 0.25 mg/kg morning + 2 mg/kg evening, three weeks, bone marrow three weeks after transplantation, FIG. 1) was “statistically significantly increased”. For the same molecule, in assay [2] (setting [5]), the “number of CD19-positive cells in right and left femurs” value is listed as “statistically significantly increased”; the “number of CD33-positive cells in right and left femurs” value was “statistically significantly increased”; the “number of CD41-positive cells in right and left femurs” value is reported as “statistically significantly increased”; the “number of CD45-positive cells in right and left femurs” value was “statistically significantly increased”. Also, the “number of CFU-Meg colonies in the bone marrow” value in the assay with human CFU-Meg colonies is on record as “statistically significantly increased”. The “number of CD34-positive cells in right and left femurs” value in assay [3] (bone marrow two weeks after transplantation) was “increase in a dose-dependent manner”. Moreover, in assay [3] (setting [6]), the “number of CD19-positive cells in right and left femurs” value is recorded as “increase in a dose-dependent manner”; the “number of CD33-positive cells in right and left femurs” value was “increase in a dose-dependent manner”; the “number of CD38-positive cells in right and left femurs” value was “increase in a dose-dependent manner”; the “number of CD41-positive cells in right and left femurs” value was “increase in a dose-dependent manner”. Also, the “number of CD45-positive cells in right and left femurs” value in assay [3] (setting [6]) is recorded as “increase in a dose-dependent manner”.

The values are drawn from patent publication US20100040600A1, “Agents for Promoting the Growth of Hematopoietic Stem Cells” (CHUGAI SEIYAKU KABUSHIKI KAISHA, priority 2006, published 2010).
